Measurements taken from patent publication US20140227280A1 (CENTRE NATIONAL DE LA RECHERCHE SCIENTIFIQUE, published 2014).

B1: mouse MCM8 protein (other)
chain: MSGAYRGRGFGRGRFQSWKRGRGGGNFSGRWRERENRVDLNEASGKHASAQASQPLLQQSTLDQFIPYKGWKLYFSEVYSNNSPFIEKIQAFEKFFTRHIDLYDKDEIERKGSILVDFKELTKADEITNLIPDIENALRDAPEKTLACMGLAIHQVLTKDLERHAAELQAQEGLSNGGETMVNVPHIYARVYNYEPLTHLKNIRATCYGKYISIRGTVVRVSNIKPLCTNMAFQCAACGEIQSFPLPDGKYTLPTKCPVPACRGRSFAPLRSSPLTVTLDWQLIKIQELMSDAQREAGRIPRTIECELVHDLVDSCVPGDTVTVTGIVKVSNSEEGSRNKNDKCMFLLYIEANSVSNSKGPKAQTAEDGCKHGTLMEFSLKDLYAIREIQAEENLLKLVVNSLCPVIFGHELVKAGLTLALFGGSQKYADDKNRIPIRGDPHVLIVGDPGLGKSQMLQAACNVAPRGVYVCGNTTTSSGLTVTLSKDSSSGDFALEAGALVLGDQGICGIDEFDKMGNQHQALLEAMEQQSISLAKAGVVCSLPARTSIVAAANPVGGHYNKARTVSENLKMGSALLSRFDLVFILLDTPNEQHDHLLSEHVIAIRAGKQKAVSSATVTRVLSQDSNTSVLEVVSEKPLSERLKVAPGEQTDPIPHQLLRKYIGYARQYVHPRLSTDAAQALQDFYLELRKQSQRVGSSPITTRQLESLIRLTEARARLELREEATREDAEDIIEIMKHSMLGTYSDEFGNLDFERSQHGSGMSNRSTAKRFISALNSIAERTYNNIFQYHQLRQIAKELNIQVADFENFIGSLNDQGYLLKKGPKIYQLQTM
notes: Endogenous protein in mouse testes extracts and MEF cell extracts
B2: MCM5 (other, mouse, UniProt P49718 2-734, looked up)
chain: SGFDDPGIFYSDSFGGDPGAEEGQARKSQLQRRFKEFLRQYRVGTDRTGFTFKYRDELKRHYNLGEYWIEVEMEDLASFDEELADHLHKQPAEHLQLLEEAAKEVADEVTRPRPAGDELLQDIQVMLKSDASPSSIRILKSDMMSHLVKIPGIIISASAVRAKATRISIQCRSCHNTLTNIAMRPGLEGYALPRKCNMDQAGRPKCPLDPYFIMPDKCKCVDFQTLKLQELPDAVPHGEMPRHMQLYCDRYLCDKVVPGNRVTIMGIYSIKKFGLNPSKGRDRVGVGIRSSYIRVLGIQVDTDGSGRSFAGSVSPQEEEEFRRLAALPNIYELISKSISPSIFGGMDMKKAIACLLFGGSRKRLPDGLTRRGDINLLMLGDPGTAKSQLLKFVEKCSPIGVYTSGKGSSAAGLTASVIRDPSSRNFIMEGGAMVLADGGVVCIDEFDKMREDDRVAIHEAMEQQTISIAKAGITTTLNSRCSVLAAANSVFGRWDETKGEDNIDFMPTILSRFDMIFIVKDEHNEERDMMLAKHVMTLHVSALTQTQAVEGEIDLAKMKKFIAYCRARCGPRLSAEAAEKLKNRYIIMRSGARQHERDSDRRSSIPITVRQLEAIVRIAEALSKMKLQPFATEADVEEALRLFQVSTLDAALSGNLSGVEGFTTQEDQEMLSRIEKQLKRRFAIGSQVSEHSIVQDFTKQKYPEHAIRKVLQLMLRRGEIQHRMQRKVLYRLK
notes: Detected by western blot (sc-22780) in the immunoprecipitates from mouse testes extracts; also called member of the MCM2-7 complex

Legend:
[1] = target: T1, MCM2 (mouse, UniProt P97310 2-904); experiment: co-immunoprecipitation from mouse testes extracts, western blot (FIG. 18A)
T1 construct: Detected by western blot (sc-9839) in the immunoprecipitates from mouse testes extracts; also called member of the MCM2-7 complex
T1 sequence (P97310 2-904 limits assumed): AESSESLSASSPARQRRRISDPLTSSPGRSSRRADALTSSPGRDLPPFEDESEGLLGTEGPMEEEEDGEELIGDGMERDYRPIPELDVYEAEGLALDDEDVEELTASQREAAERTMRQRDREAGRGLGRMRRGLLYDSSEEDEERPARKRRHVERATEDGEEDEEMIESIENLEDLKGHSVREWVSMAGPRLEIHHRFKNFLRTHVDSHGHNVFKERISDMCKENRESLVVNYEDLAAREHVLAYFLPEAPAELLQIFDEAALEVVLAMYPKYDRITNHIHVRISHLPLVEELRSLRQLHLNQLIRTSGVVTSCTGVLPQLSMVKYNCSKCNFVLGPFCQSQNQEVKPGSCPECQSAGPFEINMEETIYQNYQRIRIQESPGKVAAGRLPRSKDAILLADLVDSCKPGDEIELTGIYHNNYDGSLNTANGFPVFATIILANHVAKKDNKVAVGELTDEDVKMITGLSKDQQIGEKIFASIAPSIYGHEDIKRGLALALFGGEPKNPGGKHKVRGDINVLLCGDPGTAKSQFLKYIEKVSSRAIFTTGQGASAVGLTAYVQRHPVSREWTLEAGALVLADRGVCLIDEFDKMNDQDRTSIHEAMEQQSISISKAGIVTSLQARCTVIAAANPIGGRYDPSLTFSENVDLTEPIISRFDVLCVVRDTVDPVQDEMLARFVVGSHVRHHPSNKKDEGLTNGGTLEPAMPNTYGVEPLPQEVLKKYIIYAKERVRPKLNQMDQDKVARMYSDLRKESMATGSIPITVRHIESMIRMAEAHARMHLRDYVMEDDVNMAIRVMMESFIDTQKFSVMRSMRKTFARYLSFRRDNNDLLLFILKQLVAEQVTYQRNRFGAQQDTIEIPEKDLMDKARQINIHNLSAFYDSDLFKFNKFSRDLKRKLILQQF
Excerpt: (§1) FIG. 18A represents immunoprecipitations of MCM8 (IP anti-MCM8; lane C) and MCM9 (IP anti-MCM9; lane D) from testes extracts blotted against MCM9 (panel 1), MCM8 (panel 2), MCM2 (panel 3) and MCM5 (panel 4). To normalize the loading, IgGs of each IP are also shown (panel 5).

[2] = target: B1; experiment: as above
Excerpt: as §1

Row | Binder | binding result [1] | binding result [2]
1 | B1 | no binding | 
2 | B2 |  | no binding
